Experimental data as given in PMC4575486, “GDF-5 can act as a context-dependent BMP-2 antagonist” (BMC Biology, 2015).
Read-outs that look alike come from different tables or passages of the source.

Legend:
[1] = target: T1, extracellular domain of human BMPR-IA (human, UniProt P36894 24-152)
[2] = target: T1, extracellular domain of human BMPR-IA; assay: SPR; quality control of the recombinant ligands, as previously described (ref. 17)
[3] = target: T1, extracellular domain of human BMPR-IA; assay: cell-based or functional assay

T1 sequence (P36894 24-152): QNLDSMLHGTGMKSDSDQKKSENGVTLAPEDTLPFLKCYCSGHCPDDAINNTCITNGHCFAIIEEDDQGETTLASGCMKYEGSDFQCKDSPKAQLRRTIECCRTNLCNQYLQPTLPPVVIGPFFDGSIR

“GDF-5 R57A (growth and differentiation factor 5, variant R57A) (ligand)” was tested, and the inhibition of ALP expression induced by 20 nM BMP-2 in C2C12 cells by increasing concentrations of GDF-5 R57A, IC50 [1] was 5 nM and the Kd [2] was 1.6 nM.

B1: human GDF-5 (growth and differentiation factor 5), wild type (ligand, UniProt P43026 382-501, looked up)
chain: APLATRQGKRPSKNLKARCSRKALHVNFKDMGWDDWIIAPLEYEAFHCEGLCEFPLRSHLEPTNHAVIQTLMNSMDPESTPPTCCVPTRLSPISILFIDSANNVVYKQYEDMVVESCGCR
notes: human growth and differentiation factor 5, recombinant from E. coli; Homodimer; also called wild-type GDF-5; GDF-5WT; source: E. coli, purified (as previously described)
B1 was tested, and the “SMAD-1 phosphorylation in ATDC5 and C2C12 cells; concentration needed for phospho-SMAD levels comparable to BMP-2” value [3] was ~10 fold, the “bone formation in the rat orthotopic (calvaria) model; amount of protein needed for the same ossified surface area as BMP-2 or GDF-5 R57A” value [3] was ~20 fold and the “inhibition of ALP expression induced by 20 nM BMP-2 in C2C12 cells by increasing concentrations of wild-type GDF-5, IC50” value [3] was 70 nM. For the same molecule, the Kd ([2]; both partners purified) was 20 nM.
